# US20240116985A1 (published 2024)
# Starred links: 1 amine or outer side, 2 acyl side, 3 side chain; linkers in the order of their positions; H or OH if unused. Positions of bridges follow the written chain, without caps; N, C: chain ends. Non-standard residues stand in square brackets, D forms with d. Primed or numbered codes have the meaning given here. *: point of attachment. PyrS2″ = (S)-3-amino-1-((pent-4-en-1-yloxy)carbonyl)pyrrolidine-3-carboxylic acid (stapling residue), C=CCCCOC(=O)N1CC[C@@](N[*:1])(C(=O)[*:2])C1; B5(18) = 2,2-bis(4-pentenyl)glycine (2-amino-2-(pent-4-en-1-yl)hept-6-enoic acid), stitching residue, C=CCCCC(CCCC=C)(N[*:1])C(=O)[*:2]; TfeGA = (S)-2-amino-3-((carboxymethyl)(2,2,2-trifluoroethyl)amino)propanoic acid, O=C([C@H](CN(CC(=O)[*:3])CC(F)(F)F)N[*:1])[*:2]; PyrS2 = (S)-3-amino-1-((pent-4-en-1-yloxy)carbonyl)pyrrolidine-3-carboxylic acid, C=CCCCOC(=O)N1CC[C@@](N[*:1])(C(=O)[*:2])C1; B5(3) = 2,2-bis(4-pentenyl)glycine (stitching residue), C=CCCCC(CCCC=C)(N[*:1])C(=O)[*:2]; Me3AdamantC = 3,5,7-trimethyladamantane-1-carbonyl, CC12CC3(C)CC(C)(C1)CC(C(=O)*)(C2)C3; B5(28) = 2,2-bis(4-pentenyl)glycine, C=CCCCC(CCCC=C)(N[*:1])C(=O)[*:2]; 2F3MeF = Cc1cccc(C[C@H](N[*:1])C(=O)[*:2])c1F; Phe(2-CF3) = N[C@@H](Cc1ccccc1C(F)(F)F)C(=O)O; Phe(3-Cl) = N[C@@H](Cc1cccc(Cl)c1)C(=O)O; Phe(2-Br) = N[C@@H](Cc1ccccc1Br)C(=O)O; Phe(2-Cl) = N[C@@H](Cc1ccccc1Cl)C(=O)O; Bta = N[C@@H](Cc1csc2ccccc12)C(=O)O; αAllylPro = C=CC[C@@]1(C(=O)O)CCCN1; tBuAla = CC(C)(C)C[C@H](N)C(=O)O; 3Thi = N[C@@H](Cc1ccsc1)C(=O)O; S8 = C=CCCCCCC[C@](C)(N)C(=O)O; AdamantC = not defined here; PyrS2(4) = not defined here; TfeGA″ = not defined here; Octanoyl = CCCCCCCC(=O)*; Butyryl = CCCC(=O)*
# B1: I-1017 (peptide)
# peptide: Ac-[αAllylPro]D[tBuAla][B5(18)]DDAAFS[PyrS2″][Phe(2-Cl)][Bta]Q-NH2
# modifications: staple 1-4, 4-11
# B2: I-926 (peptide)
# peptide: Ac-[αAllylPro]D[tBuAla][B5(3)]D[TfeGA]AAFN[PyrS2″][Phe(3-Cl)][Bta]Q-NH2
# modifications: staple 1-4, 4-11; not fully specified
# B3: I-915 (peptide)
# peptide: Ac-[αAllylPro]D[tBuAla][B5(3)]DDAAFN[PyrS2(4)][3Thi][Bta]QK(2Napc)-NH2
# modifications: staple 1-4, 4-11; reading uncertain; also: printed as Ac-PL3-Asp-Npg-B5-Asp-Asp-Ala-Ala-Phe-Asn-PyrS2-3Thi-BztA-Gln-[2Napc]Lys-NH2
# B4: I-923 (peptide)
# peptide: Ac-[αAllylPro]D[tBuAla][B5(3)]D[TfeGA]AAFF[PyrS2″][Phe(2-Cl)][Bta]Q-NH2
# modifications: staple 1-4, 4-11
# B5: I-920 (peptide)
# peptide: Ac-[αAllylPro]D[tBuAla][B5(3)]DDAAFN[PyrS2″][3Thi][Bta]QK(Me3AdamantC)-NH2
# modifications: staple 1-4, 4-11
# B6: I-924 (peptide)
# peptide: Ac-[αAllylPro]D[tBuAla][B5(3)]D[TfeGA]AAFN[PyrS2″][Phe(2-Br)][Bta]Q-NH2
# modifications: staple 1-4, 4-11
# B7: I-929 (peptide)
# peptide: Ac-[αAllylPro]D[tBuAla][B5(3)]D[TfeGA]AAFN[S8][Phe(2-Cl)][Bta]Q-NH2
# modifications: staple 1-4, 4-11
# B8: I-916 (peptide)
# peptide: Ac-[αAllylPro]D[tBuAla][B5(3)]DDAAFN[PyrS2(4)][3Thi][Bta]QK(1Napc)-NH2
# modifications: staple 1-4, 4-11; reading uncertain; also: printed as Ac-PL3-Asp-Npg-B5-Asp-Asp-Ala-Ala-Phe-Asn-PyrS2-3Thi-BztA-Gln-[1Napc]Lys-NH2
# B9: I-919 (peptide)
# peptide: Ac-[αAllylPro]D[tBuAla][B5(3)]DDAAFN[PyrS2(4)][3Thi][Bta]QK(AdamantC)-NH2
# modifications: staple 1-4, 4-11; reading uncertain; also: printed as Ac-PL3-Asp-Npg-B5-Asp-Asp-Ala-Ala-Phe-Asn-PyrS2-3Thi-BztA-Gln-[AdamantC]Lys-NH2
# B10: I-928 (peptide)
# peptide: Ac-[αAllylPro]D[tBuAla][B5(3)]D[TfeGA]AAFN[PyrS2″][Phe(2-CF3)][Bta]Q-NH2
# modifications: staple 1-4, 4-11; not fully specified
# B11: I-917 (peptide)
# peptide: Ac-[αAllylPro]D[tBuAla][B5(3)]DDAAFN[PyrS2″][3Thi][Bta]QK(Butyryl)-NH2
# modifications: staple 1-4, 4-11
# B12: I-922 (peptide)
# peptide: Ac-[αAllylPro]D[tBuAla][B5(28)]D[TfeGA″]AAFT[PyrS2][Phe(2-Cl)][Bta]Q-NH2
# modifications: staple 1-4, 4-11; reading uncertain
# B13: I-918 (peptide)
# peptide: Ac-[αAllylPro]D[tBuAla][B5(3)]DDAAFN[PyrS2″][3Thi][Bta]QK(Octanoyl)-NH2
# modifications: staple 1-4, 4-11; not fully specified; printed as Ac-PL3-Asp-Npg-B5-Asp-Asp-Ala-Ala-Phe-Asn-PyrS2-3Thi-BztA-Gln-[Oct]Lys-NH2
# B14: I-925 (peptide)
# peptide: Ac-[αAllylPro]D[tBuAla][B5(3)]D[TfeGA]AAFN[PyrS2″][Phe(3-Cl)][Bta]Q-NH2
# modifications: staple 1-4, 4-11; not fully specified
# B15: I-927 (peptide)
# peptide: Ac-[αAllylPro]D[tBuAla][B5(3)]D[TfeGA″]AAFN[PyrS2(4)][2F3MeF][Bta]Q-NH2
# modifications: staple 1-4, 4-11; reading uncertain; also: staple stereoisomer, earlier-eluting HPLC peak
# Target: T1, B-cat-Halo (UniProt P35222 1-781)
# T1 sequence (looked up): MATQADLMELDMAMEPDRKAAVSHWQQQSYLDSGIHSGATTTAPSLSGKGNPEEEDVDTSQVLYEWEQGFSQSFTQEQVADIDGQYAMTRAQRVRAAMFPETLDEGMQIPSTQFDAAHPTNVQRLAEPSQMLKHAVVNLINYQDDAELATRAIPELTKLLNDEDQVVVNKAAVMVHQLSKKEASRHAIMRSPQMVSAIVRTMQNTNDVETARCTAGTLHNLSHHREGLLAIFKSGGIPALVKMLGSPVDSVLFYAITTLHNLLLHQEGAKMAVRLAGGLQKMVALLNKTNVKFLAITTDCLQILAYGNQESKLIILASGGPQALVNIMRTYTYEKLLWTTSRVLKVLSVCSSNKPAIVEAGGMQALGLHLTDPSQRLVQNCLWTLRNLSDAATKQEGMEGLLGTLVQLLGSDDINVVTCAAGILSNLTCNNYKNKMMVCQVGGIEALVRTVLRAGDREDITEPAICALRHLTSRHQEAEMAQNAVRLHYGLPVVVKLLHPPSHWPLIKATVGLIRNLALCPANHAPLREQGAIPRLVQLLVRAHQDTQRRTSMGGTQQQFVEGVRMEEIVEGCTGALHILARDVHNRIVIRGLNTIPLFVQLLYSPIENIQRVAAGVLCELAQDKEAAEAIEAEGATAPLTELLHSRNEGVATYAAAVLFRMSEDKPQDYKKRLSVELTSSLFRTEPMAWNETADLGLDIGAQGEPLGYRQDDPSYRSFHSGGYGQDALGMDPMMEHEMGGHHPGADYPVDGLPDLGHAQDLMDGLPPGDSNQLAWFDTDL
# Experiment: cell-based or functional assay
row,Binder,NanoBRET Abs IC50
1,B1,8.9 µM

# Target: T2, B-cat-Halo (UniProt P35222 1-781, HaloTag NanoBRET 618 Ligand bound to the HaloTag in the assay)
# T2 sequence (looked up): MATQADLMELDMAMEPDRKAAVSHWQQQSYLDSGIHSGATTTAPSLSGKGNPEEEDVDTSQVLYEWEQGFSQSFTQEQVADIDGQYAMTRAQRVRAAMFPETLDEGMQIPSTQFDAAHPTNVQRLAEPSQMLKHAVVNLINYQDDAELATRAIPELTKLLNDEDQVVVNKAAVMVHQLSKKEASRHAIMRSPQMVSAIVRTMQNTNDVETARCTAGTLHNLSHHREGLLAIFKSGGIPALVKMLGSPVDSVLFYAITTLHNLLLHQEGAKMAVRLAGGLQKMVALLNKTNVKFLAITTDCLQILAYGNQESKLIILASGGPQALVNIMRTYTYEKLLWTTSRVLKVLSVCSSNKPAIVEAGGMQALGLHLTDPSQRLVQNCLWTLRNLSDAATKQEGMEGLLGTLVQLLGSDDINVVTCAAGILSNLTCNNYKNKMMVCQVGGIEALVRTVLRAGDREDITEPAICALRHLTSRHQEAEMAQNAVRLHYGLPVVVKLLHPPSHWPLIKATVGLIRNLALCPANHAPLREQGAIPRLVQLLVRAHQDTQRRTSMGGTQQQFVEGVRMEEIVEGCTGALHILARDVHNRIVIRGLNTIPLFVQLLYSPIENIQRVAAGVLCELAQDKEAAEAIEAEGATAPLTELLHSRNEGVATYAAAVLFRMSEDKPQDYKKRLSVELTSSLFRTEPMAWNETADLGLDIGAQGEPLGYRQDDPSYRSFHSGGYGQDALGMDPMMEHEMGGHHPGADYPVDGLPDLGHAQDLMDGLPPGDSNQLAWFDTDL
# Experiment: cell-based or functional assay
row,Binder,NanoBRET Abs IC50
1,B2,29.9 µM
2,B3,15.5 µM
3,B4,6 µM
4,B5,17.7 µM
5,B6,3.3 µM
6,B7,10.3 µM
7,B8,13.6 µM
8,B9,15.2 µM
9,B10,6.1 µM
10,B11,19.7 µM
11,B12,2.7 µM
12,B13,11.1 µM
13,B14,20 µM
14,B15,8.2 µM
